Experimental findings from patent US20050058640A1 (BAXTER INTERNATIONAL, published 2005) are described below.

Data set [1] deals with factor VIII / factor VIIIa (recombinant human coagulation factor VIII, thrombin-activated) (UniProt P00451).
Data set [2] has as its target T1, human factor IXa (human, UniProt P00740 47-191; P00740 227-461). Kind of data set: cell-based or functional assay.
For the next data set, the target named is T2, bovine FIX (bovine, UniProt P00741 47-462).
T2 construct: also called bovine factor IX
As to the kind of experiment: ELISA and Western blot. Background: An ELISA detects its analyte on a solid surface through an enzyme-linked reagent.

The target of a further data set is T3, murine FIX (murine, UniProt P16294 47-471).
T3 construct: also called murine factor IX
Kind of data set: ELISA and Western blot.

The target of data set [3] is T1, human factor IXa. Kind of data set: SPR (BIACORE), antibody captured by anti-mouse Fc on CM5 chip, FIXa in flow, steady state analysis. The source says: Polyclonal anti-mouse Fc antibodies were immobilized on a CM5 sensor chip and saturated with the respective monoclonal antibody. As a reference, a non-specific mouse IgG was used.
(In general: In SPR one partner is held on a chip, and binding of the other changes the refractive index at the surface.)

Data set [4] deals with T1, human factor IXa. As to the kind of experiment: cell-based or functional assay. The source holds these as a separate data set.

T1 sequence (P00740 47-191 limits assumed, chain 1 of 2): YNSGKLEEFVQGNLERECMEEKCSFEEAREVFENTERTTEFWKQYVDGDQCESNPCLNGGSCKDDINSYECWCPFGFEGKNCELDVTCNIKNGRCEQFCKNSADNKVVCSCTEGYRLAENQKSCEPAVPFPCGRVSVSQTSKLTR
T1 sequence (P00740 227-461 limits assumed, chain 2 of 2): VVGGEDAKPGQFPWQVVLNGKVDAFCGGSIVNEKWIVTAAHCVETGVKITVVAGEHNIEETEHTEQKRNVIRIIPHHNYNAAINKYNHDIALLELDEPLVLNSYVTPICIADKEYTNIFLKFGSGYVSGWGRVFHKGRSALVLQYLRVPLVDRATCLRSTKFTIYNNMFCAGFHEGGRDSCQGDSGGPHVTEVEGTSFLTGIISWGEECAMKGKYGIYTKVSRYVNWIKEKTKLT
T2 sequence (P00741 47-462 limits assumed): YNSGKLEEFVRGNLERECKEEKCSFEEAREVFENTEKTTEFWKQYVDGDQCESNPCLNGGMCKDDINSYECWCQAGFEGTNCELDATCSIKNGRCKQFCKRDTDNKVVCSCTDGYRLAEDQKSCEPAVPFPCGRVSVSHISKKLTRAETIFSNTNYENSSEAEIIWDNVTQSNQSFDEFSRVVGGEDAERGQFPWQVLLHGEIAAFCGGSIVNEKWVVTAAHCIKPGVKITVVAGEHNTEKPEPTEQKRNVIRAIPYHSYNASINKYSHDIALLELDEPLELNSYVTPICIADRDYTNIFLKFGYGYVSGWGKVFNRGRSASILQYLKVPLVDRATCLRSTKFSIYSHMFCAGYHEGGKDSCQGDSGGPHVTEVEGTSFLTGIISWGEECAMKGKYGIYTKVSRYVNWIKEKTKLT
factor VIII / factor VIIIa (recombinant human coagulation factor VIII, thrombin-activated), sequence (P00451 20-2351): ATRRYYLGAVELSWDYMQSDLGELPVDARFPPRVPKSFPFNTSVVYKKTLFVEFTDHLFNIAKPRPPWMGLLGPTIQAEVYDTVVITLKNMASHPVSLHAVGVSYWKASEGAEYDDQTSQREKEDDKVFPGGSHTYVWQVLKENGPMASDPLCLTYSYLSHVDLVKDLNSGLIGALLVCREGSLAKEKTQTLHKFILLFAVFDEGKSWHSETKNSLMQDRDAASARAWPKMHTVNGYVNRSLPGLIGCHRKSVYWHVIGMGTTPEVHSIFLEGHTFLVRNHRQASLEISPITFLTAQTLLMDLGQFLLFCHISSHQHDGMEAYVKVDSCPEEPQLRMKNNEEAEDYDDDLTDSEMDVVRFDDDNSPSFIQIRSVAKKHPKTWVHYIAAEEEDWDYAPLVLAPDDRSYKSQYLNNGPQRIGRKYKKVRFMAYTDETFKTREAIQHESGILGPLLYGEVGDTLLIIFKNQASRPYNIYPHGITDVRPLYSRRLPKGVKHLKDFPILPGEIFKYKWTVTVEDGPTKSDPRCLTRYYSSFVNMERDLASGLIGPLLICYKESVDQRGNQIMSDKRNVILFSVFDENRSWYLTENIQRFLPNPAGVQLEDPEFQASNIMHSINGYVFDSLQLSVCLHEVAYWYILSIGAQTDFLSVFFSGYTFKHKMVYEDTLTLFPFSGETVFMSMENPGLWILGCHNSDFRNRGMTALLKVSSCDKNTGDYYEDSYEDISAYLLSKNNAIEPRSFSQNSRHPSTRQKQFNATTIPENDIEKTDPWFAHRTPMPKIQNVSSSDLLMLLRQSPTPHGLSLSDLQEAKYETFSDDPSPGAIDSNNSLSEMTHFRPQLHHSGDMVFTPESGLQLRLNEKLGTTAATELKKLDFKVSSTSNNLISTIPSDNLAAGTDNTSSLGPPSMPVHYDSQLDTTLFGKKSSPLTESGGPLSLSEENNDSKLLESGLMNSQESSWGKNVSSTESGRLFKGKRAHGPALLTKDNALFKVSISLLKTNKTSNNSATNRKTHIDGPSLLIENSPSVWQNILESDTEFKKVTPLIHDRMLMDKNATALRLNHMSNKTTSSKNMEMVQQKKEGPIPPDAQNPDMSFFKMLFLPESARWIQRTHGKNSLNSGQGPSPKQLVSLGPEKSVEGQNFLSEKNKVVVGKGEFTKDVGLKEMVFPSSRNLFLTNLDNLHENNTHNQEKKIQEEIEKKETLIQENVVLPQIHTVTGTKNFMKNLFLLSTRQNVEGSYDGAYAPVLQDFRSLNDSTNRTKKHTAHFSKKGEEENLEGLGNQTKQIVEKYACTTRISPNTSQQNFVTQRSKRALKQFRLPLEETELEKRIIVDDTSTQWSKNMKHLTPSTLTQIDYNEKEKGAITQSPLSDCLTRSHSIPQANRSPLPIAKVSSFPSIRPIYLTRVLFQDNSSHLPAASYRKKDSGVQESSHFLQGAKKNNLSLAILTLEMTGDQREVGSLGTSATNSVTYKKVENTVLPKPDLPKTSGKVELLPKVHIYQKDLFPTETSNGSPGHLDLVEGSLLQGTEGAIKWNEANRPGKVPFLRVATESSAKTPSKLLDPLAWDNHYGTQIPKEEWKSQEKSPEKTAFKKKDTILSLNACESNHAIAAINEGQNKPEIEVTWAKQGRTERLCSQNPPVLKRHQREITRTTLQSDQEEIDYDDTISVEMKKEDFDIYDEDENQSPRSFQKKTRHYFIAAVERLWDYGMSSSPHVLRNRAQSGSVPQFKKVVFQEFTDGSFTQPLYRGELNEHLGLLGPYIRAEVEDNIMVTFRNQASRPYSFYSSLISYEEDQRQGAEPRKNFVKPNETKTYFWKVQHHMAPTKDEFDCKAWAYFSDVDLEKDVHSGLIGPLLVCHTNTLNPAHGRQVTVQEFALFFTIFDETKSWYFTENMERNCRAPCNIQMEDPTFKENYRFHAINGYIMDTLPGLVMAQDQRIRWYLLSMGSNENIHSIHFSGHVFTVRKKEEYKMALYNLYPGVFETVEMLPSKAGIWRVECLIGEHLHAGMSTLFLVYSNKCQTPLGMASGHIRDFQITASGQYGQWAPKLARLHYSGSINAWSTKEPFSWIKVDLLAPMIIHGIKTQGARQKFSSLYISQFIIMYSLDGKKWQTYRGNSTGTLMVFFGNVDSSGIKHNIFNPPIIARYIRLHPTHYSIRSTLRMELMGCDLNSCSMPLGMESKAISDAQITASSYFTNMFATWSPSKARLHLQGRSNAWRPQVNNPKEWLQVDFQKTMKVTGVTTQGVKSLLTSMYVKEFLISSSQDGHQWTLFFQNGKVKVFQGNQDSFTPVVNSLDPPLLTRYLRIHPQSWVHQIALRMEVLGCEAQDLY
T3 sequence (P16294 47-471 limits assumed): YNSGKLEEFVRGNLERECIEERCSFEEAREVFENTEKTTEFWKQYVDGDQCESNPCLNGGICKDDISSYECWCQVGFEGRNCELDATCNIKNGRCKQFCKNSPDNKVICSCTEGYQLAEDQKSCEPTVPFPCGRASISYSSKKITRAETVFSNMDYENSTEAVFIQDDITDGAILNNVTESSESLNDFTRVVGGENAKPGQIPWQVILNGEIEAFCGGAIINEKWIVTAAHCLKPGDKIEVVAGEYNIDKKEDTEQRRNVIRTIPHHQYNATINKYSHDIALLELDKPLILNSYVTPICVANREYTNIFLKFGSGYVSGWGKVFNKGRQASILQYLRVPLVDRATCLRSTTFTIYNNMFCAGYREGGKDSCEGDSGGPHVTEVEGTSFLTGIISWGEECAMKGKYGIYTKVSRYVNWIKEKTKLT

For the molecule human factor IXa, in data set [1], the “decrease of Km of FIXa” value is reported as “approximately 2.5-fold”.

B1: antibody 224F3 (antibody, V domains shown)
VH: QVQMQQSGAELVKPGASVKLSCKASGYTFTSQDINWVRQRPEQGLEWIGWIFPGDGSTKYNEKLKGKATLTTDKSSSTAFMQLSRLTSEDSAVYFCARSAYYRYDGSYYYAMDYWGQGTSVTVSS
VL: QIVLTQSPAIMSASLGEEITLTCSASSSVSYMLWYQQKSGTSPKLLIYTTSNLASGVPSRFSGTGSGTFYSLTISSVEAEDAADYYCHQWSSYPRTFGGGTKLEIKR
As a reminder, the Kd is the concentration at which binding is half-saturated. Low readings indicate tighter binding, high ones weaker binding. The term KM denotes the substrate concentration at which the rate is half of its maximum. The term kcat denotes the number of substrate molecules converted per active site and unit of time at saturation. What is called kcat/KM is the second-order rate constant that governs catalysis at low substrate concentration. In the case of B1, in the data set with human factor IXa [2], the “enhancement of the rate of FXa formation” value turned out to be 10 fold and the “increase of kcat of FX activation by FIXa” value is about 10 fold. The binding result with bovine FIX was “binds”. Further, in the data set with murine FIX, the binding result is “no binding”. In the data set with human factor IXa [3], this molecule had a Kd of 0.477 nM. Further, in the data set with human factor IXa [4], the KM came out at 0.048 µM, the turnover number (kcat) is 0.000883 s⁻¹ and the kcat/KM turned out to be 18300 M⁻¹ s⁻¹.
